# Results from paper PMC3157015 (Biochemical and biophysical research communications, 2011).
# No end group written: not given here.
# Experiments:
# [1] = target: T1, Glutaminase Interacting Protein (GIP), recombinant (UniProt O14907 1-124); experiment: NMR titration
# T1 sequence (looked up): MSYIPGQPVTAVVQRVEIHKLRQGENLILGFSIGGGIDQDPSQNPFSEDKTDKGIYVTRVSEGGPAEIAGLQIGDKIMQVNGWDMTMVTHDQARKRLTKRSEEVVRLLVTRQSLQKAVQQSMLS
# [2] = target: T1, Glutaminase Interacting Protein (GIP), …; experiment: NMR titration; remark: listed apart in the source
binder,measurement,setting,value
RDGDFQTEV-OH [BAI2 C-terminal peptide (RDGDFQTEV-COOH)],KD from residue A66 of GIP,[1],86.6 µM
same,KD from residue D38 of GIP,[1],92.5 µM
same,KD from residue E17 of GIP,[1],64.8 µM
same,KD from residue E62 of GIP,[1],102 µM
same,KD from residue E102 of GIP,[1],118 µM
same,KD from residue F46 of GIP,[1],138 µM
same,KD from residue L71 of GIP,[1],85.8 µM
same,KD from residue N81 of GIP,[1],84.3 µM
same,KD from residue T86 of GIP,[1],104 µM
same,Kd,[2],97.8 µM
